Source: patent publication US20240076406A1 (NATIONAL RESEARCH COUNCIL OF CANADA, published 2024)

B1: sdCA9-1-VHH (VHH)
VHH: QVQLVESGGGLVQAGGSLRLSCAASGFTFDDWAIGWFRQAPGKEREGVSCISKRHGTTHYADSVKGRFTISSDNAKNTVYLRMNGLKPEDTAVYYCAASSWGSCTVATMRDVDRYDYDYWGQGTQVTVSS
notes: Llama VHH expressed in E. coli from the pSJF2 vector and purified by IMAC
B2: sdCA9-2-VHH (VHH)
VHH: QVKLEESGGDLVQPGGSLRLSCAASGFTLDYYAIGWFRQAPGKEREGVSCFSSVDGSTYYADSVKGRFTISRDNAKNMVYLQMNSLKPEDTAIYYCAAELYGELGVATVQAMCRLTTPGGDYWGQGTQVTVSS
notes: as for B1
B3: sdCA9-3-VHH (VHH)
VHH: QVQLVESGGGLVQAGDSLRLSCAASGGTFSRYGMGWFRQAPGKEREFVAAISGTGLNTYYMDSVKGRFTISRDNAENTVYLQMNSLKPEDTAVYYCARDRGGVEYDYWGQGTQVTVSS
notes: Llama VHH expressed in E. coli from the pSJF2 vector and purified by IMAC; also called sdCA9-3-VHH-VHH

Columns and labels:
[1] = target: hCA-IX-ECD monomeric (monomeric parental CA-IX extracellular domain) (human, UniProt Q16790 38-414); assay: SPR; CA-IX immobilized on SA sensor chip, VHH injected
Description: (§1) In vitro binding affinity/SPR. To evaluate the binding affinity (KD) of the VHH only format of the 4 single domain antibodies, CA-IX monomer and dimer were immobilized on SA sensor chip (GE Healthcare) and serial dilutions of the sdAbs were injected over the surface (FIG. 3A).

[2] = target: T1, hCA-IX ECD dimer (dimeric extracellular domain of hCA-IX) (human, UniProt Q16790 38-414); assay: as above
Description: as §1

[3] = target: T2, mouse CA-IX (mouse, UniProt Q8VHB5 32-390, limits assumed); assay: ELISA on purified protein, 500 nM VHH, binding above background
T2 sequence (Q8VHB5 32-390 limits assumed): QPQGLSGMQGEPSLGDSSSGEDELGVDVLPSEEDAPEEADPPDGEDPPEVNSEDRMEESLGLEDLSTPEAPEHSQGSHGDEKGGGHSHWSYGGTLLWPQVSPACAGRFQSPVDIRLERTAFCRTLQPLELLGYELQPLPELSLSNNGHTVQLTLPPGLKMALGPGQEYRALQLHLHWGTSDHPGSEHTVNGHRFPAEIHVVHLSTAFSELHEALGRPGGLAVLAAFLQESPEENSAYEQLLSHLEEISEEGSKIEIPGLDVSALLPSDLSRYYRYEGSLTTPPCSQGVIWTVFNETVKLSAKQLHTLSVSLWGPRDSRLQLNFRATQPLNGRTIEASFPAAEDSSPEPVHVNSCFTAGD
Description: Cross reactivity and CA-IX specificity. Binding specificity and species cross reactivity of two sdAb were tested in an ELISA assay using purified proteins for human, mouse, cynomolgus monkey and dog CA-IX.

[4] = target: human CA-II (human, UniProt P00918 1-260); assay: ELISA on purified protein, binding above background
[5] = target: T3, human CA-XIV (human, UniProt Q9ULX7 16-290, limits assumed); assay: as above
T3 construct: also called carbonic anhydrase XIV
T3 sequence (Q9ULX7 16-290 limits assumed): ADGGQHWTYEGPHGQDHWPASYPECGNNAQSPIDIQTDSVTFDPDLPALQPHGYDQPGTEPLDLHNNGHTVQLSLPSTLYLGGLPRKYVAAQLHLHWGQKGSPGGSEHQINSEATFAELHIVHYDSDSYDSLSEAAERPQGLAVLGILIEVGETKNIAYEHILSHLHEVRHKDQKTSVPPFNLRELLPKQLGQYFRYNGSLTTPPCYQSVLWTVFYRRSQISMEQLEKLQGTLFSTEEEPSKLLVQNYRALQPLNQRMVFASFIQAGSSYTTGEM

[6] = target: T4, human CA-IV (human, UniProt P22748 19-283, limits assumed); assay: as above
T4 construct: also called carbonic anhydrase IV
T4 sequence (P22748 19-283 limits assumed): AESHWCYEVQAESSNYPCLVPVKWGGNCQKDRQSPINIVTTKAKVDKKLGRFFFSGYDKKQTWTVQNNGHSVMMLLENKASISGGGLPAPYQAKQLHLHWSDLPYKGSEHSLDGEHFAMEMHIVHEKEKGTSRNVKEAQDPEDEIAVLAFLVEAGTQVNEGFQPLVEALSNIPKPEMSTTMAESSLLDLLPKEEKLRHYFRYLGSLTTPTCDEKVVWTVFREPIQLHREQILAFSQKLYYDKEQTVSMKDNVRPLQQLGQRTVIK

[7] = target: T5, human CA-XII (human, UniProt O43570 25-291, limits assumed); assay: as above
T5 construct: also called carbonic anhydrase XII
T5 sequence (O43570 25-291 limits assumed): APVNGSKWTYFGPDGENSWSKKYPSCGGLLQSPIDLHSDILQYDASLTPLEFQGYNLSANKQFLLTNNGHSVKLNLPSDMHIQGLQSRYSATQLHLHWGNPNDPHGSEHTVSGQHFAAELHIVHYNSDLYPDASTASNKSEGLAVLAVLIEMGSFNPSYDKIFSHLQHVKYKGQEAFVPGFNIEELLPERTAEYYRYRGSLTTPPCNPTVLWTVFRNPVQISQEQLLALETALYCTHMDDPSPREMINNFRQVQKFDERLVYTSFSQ

[8] = target: T1, hCA-IX ECD dimer (dimeric extracellular …); assay: cell-based or functional assay
[9] = target: T2, mouse CA-IX; assay: ELISA on purified protein, binding above background

Row | Binder | Kd [1] | Kd [2] | binding result [3] | binding result [4] | binding result [5] | binding result [6] | binding result [7] | IC50 (hCA-IX in vitro enzyme activity, 4Mu-Ac hydrolysis) [8] | logIC50 (hCA-IX in vitro enzyme activity, 4Mu-Ac hydrolysis) [8] | binding result [9]
1 | B1 | 28.9 nM | 37 nM | binds | no binding (tested: 500 nM) | no binding (tested: 500 nM) | no binding (tested: 500 nM) | no binding (tested: 500 nM) | 0.111 µM (unit not printed; the text gives the values in nM) | -0.954 log10 of IC50 (IC50 in µM; unit not printed) | 
2 | B2 | 234 nM | 176 nM |  | no binding (tested: 500 nM) | no binding (tested: 500 nM) | no binding (tested: 500 nM) | no binding (tested: 500 nM) | 0.0484 µM (unit not printed; the text gives the values in nM) | -1.13 log10 of IC50 (IC50 in µM; unit not printed) | no binding (tested: 500 nM)
3 | B3 | 314 nM | 341 nM |  |  |  |  |  |  |  | 
